Experimental data published in article PMC6017926, “CpG Methylation Changes G-Quadruplex Structures Derived from Gene Promoters and Interaction with VEGF and SP1”.

How the values were obtained:
GST-SP1 [1] = biological target: GST-SP1 (UniProt P08047); assay: ELONA; conditions: 5-methylcytosine at CpG (underlining lost in text; CpG C at 5, 10, 16); SPR VEGF165: DNA folded in 10 mM Tris-HCl, 100 mM KCl, pH 7.4, 25 °C; ELONA: DNA folded in TK (100 mM KCl) or 100 mM LiCl buffer, binding in TBS (10 mM …)
Sequence of GST-SP1 (P08047 whole entry): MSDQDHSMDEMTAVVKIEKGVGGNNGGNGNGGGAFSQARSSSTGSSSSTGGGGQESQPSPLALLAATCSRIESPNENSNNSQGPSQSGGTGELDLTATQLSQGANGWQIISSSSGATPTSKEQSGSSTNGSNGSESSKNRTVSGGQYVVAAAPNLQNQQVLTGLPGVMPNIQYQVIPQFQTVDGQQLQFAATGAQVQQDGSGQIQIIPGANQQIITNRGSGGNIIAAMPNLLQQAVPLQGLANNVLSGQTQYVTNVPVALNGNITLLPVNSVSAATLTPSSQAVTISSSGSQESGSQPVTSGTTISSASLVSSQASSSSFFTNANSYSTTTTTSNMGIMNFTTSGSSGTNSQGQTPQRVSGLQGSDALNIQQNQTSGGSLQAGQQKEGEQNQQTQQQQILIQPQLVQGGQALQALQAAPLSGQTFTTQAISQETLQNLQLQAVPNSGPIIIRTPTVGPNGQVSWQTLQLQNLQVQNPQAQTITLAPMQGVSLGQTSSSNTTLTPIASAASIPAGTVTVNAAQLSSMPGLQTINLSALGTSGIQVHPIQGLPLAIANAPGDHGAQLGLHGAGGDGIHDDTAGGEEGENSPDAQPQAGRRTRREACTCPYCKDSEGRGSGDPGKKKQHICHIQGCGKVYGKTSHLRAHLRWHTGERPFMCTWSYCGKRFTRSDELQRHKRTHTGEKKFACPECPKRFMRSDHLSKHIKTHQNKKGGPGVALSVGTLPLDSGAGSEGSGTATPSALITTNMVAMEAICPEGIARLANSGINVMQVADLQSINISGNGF

GST-SP1 [2] = biological target: GST-SP1 (UniProt P08047); assay: SPR; conditions: SPR VEGF165: DNA folded in 10 mM Tris-HCl, 100 mM KCl, pH 7.4, 25 °C, ELONA: DNA folded in TK (100 mM KCl) or 100 mM LiCl buffer, binding in TBS (10 mM …)
VEGF165 = VEGF165 (UniProt P15692-4 27-191); assay: SPR; 100 mM K+; SPR VEGF165: DNA folded in 10 mM Tris-HCl, 100 mM KCl, pH 7.4, 25 °C; ELONA: DNA folded in TK (100 mM KCl) or 100 mM LiCl buffer, binding in TBS (10 mM Tris-HCl, 150 mM NaCl, 5 mM KCl), 90 µM ZnCl2, pH 7.3, RT; SPR GST-SP1: captured by anti-GST on CM5, single-cycle kinetics 10-160 nM DNA, running buffer not stated; conditions: chain copies: 2, label: 5' biotin for ELONA
Sequence of VEGF165 (P15692 other isoform, or with tags, fused parts or gaps): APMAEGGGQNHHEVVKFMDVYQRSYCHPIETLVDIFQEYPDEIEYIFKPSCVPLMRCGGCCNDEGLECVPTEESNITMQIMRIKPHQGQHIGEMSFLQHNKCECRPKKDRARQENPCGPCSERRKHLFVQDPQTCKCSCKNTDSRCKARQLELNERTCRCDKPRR

Molecule “GGGGCGGGCCGGGGGCGGGG [VEGF G4 methylated]” has a binding signal (fold signal vs unmethylated) (GST-SP1 [1]) of 1.5 and a Kd (GST-SP1 [2]; 5-methylcytosine at CpG (underlining lost in text; CpG C at 5, 10, 16)) of 11 nM.

For “GGGGCGGGCCGGGGGCGGGG [VEGF G4 unmethylated]”, the Kd (GST-SP1 [2]) was 14 nM.

“GGCGAGGAGGGGCGTGGCCGGC [c-KIT G4 unmethylated]” gave a Kd (GST-SP1 [2]) of 16 nM.

For “CGGGGCGGGGCGGGGGCGGGGGCG [HRAS2 G4 unmethylated]”, the Kd (GST-SP1 [2]) was 10 nM.

“CGGGCGCGGGAGGAAGGGGGCGGGAGC [BCL-2 G4 unmethylated]” was tested, and the Kd (GST-SP1 [2]) was 12 nM.

Molecule “TCGGGTTGCGGGCGCAGGGCACGGGCG [HRAS1 G4 methylated]” has a Kd (GST-SP1 [2]; 5-methylcytosine at CpG (underlining lost in text; CpG C at 2, 9, 13, 22, 26)) of 36 nM.

Work on “GGCGAGGAGGGGCGTGGCCGGC [c-KIT G4 methylated]” yielded a Kd (GST-SP1 [2]; 5-methylcytosine at CpG (underlining lost in text; CpG C at 3, 13, 19)) of 11 nM.

Molecule “CGGGGCGGGGCGGGGGCGGGGGCG [HRAS2 G4 methylated]” has a Kd (GST-SP1 [2]; 5-methylcytosine at CpG (underlining lost in text; CpG C at 1, 6, 11, 17, 23)) of 27 nM.

In the case of “CGGGCGCGGGAGGAAGGGGGCGGGAGC [BCL-2 G4 methylated]”, the Kd (GST-SP1 [2]; 5-methylcytosine at CpG (underlining lost in text; CpG C at 1, 5, 7, 21)) is reported as 28 nM.

In the case of “TCGGGTTGCGGGCGCAGGGCACGGGCG [HRAS1 G4 unmethylated]”, the Kd (GST-SP1 [2]) is reported as 10 nM.

Molecule GGGGCGGGCCGGGGGCGGGG (structured_DNA) [VEGF G4 unmethylated] has a Kd (VEGF165; G4, parallel in K+) of 13 ± 0.43 nM.

For GGGGCGGGCCGGGGGCGGGG (structured_DNA, 5-methylcytosine at CpG (underlining lost in text; CpG C at 5, 10, 16)) [VEGF G4 methylated], the Kd (VEGF165; G4, altered topology) was 25 ± 5.7 nM.
